The values that follow come from the RNAGym collection of RNA variant scans (doi:10.1021/acssynbio.7b00057).

The chains are these.
B1: Pistol ribozyme (parent)
chain: GGGUCGUUGUUCCAUAAUCGCGUGGAUAUGGCACGCAAGUUUCUACCGGGCACCGUAAAUGUCCGACUGGAGCCGUUCGGGCGGCUAUAAACAGACCUCAGGCCCGAAGCGUGGCGGCACCUGCCGCCGGUGGUAAAAAAGAUCGGAAGAGCACACGUCU

The variants in this data set derive from B1. The data set is described as follows: aptazyme ON/OFF ratio, guanine; higher = stronger switching; co-transcriptional cleavage with and without guanine.
For the variant U7C U8G G9C U10C, the “aptazyme ON/OFF ratio” value came out at 3.58.
For the variant U7C U8G G9C U10A, the “aptazyme ON/OFF ratio” value was 1.28.
U7C U8G G9A U11G: the “aptazyme ON/OFF ratio” value came out at 1.18.
For the variant U7C U8G G9A U11C C12G C13U, the “aptazyme ON/OFF ratio” value was 1.1.
The value for U7C U8G G9A U11C C12G C13G was 1.17.
The value for U7C U8G G9A U11C C12G C13A was 1.05.
As for U7C U8G G9C U10A U11A C12A C13A, the “aptazyme ON/OFF ratio” value was found to be 1.13.
Take U7C U8G G9C U10A U11A C12A C13G: the “aptazyme ON/OFF ratio” value worked out at 1.15.
For U7C U8G G9C U10A U11A C12A C13U the value was 1.26; for U7C U8G G9C U10C U11C C12A C13A, 1.03.
For U7C U8G G9C U10C U11C C12A C13G the value was 1.04; for U7C U8G G9C U10C U11C C12A C13U, 1.02; for U7C U8G G9C U10C U11G C12G C13G, 1.09.
On to U7C U8G G9C U10C U11G C12G C13A, for which the “aptazyme ON/OFF ratio” value turned out to be 1.12.
The value for U7C U8G G9C U10C U11A was 0.99; that for U7C U8G G9C U10C U11G was 1.16; that for U7C U8G G9C U10C U11C was 1.04.
Consider U7C U8G G9C U10C U11A C13G, for which the “aptazyme ON/OFF ratio” value is 1.23.
For the variant U7C U8G G9C U10C U11A C13A, the “aptazyme ON/OFF ratio” value turned out to be 1.21.
The value for U7C U8G G9C U10C U11A C13U was 1.21; that for U7C U8G G9C C12A was 1.58; that for U7C U8G G9C C12G was 1.28.
For U7C U8G G9C C12U the value was 1.11.
In the case of U7C U8G G9C U10A U11G C12G C13G, the “aptazyme ON/OFF ratio” value was found to be 1.16.
With U7C U8G G9C U10A U11G C12G C13A, the “aptazyme ON/OFF ratio” value amounted to 1.31.
As for U7C U8G G9C U10A U11G C12G C13U, the “aptazyme ON/OFF ratio” value was 1.18.
For U7C U8G G9C U10C U11A C12G C13U, the “aptazyme ON/OFF ratio” value came out at 1.12.
As to U7C U8G G9C U10C U11A C12G C13A, the “aptazyme ON/OFF ratio” value is 1.1.
Take U7C U8G G9C U10C U11A C12G C13G: the “aptazyme ON/OFF ratio” value was 1.17.
For the variant U7C U8G G9C U10A U11C C12G, the “aptazyme ON/OFF ratio” value worked out at 1.15.
For U7C U8G G9C U10A U11C C12A the value was 1.19; for U7C U8G G9C U10A U11C C12U, 1.05.
Take U7C U8G G9C U10A U11A C12U C13A: the “aptazyme ON/OFF ratio” value came to 1.21.
The value for U7C U8G G9C U10A U11A C12U C13U was 1.24; that for U7C U8G G9C U10A U11A C12U C13G was 1.17; that for U7C U8G G9C U10A U11A C12U was 1.26.
For U7C U8G G9C U10A U11A C12G the value was 1.14; for U7C U8G G9C U10A U11A C12A, 1.22; for U7C U8G G9A U11G C13U, 1.13.
In the case of U7C U8G G9A U11G C13G, the “aptazyme ON/OFF ratio” value stood at 1.03.
Consider U7C U8G G9A U11G C13A, for which the “aptazyme ON/OFF ratio” value is 1.21.
Consider U7C U8G G9C U10C U11C C12U C13A, for which the “aptazyme ON/OFF ratio” value came out at 1.04.
With U7C U8G G9C U10C U11C C12U C13U, the “aptazyme ON/OFF ratio” value amounted to 1.03.
Consider U7C U8G G9C U10C U11C C12U C13G, for which the “aptazyme ON/OFF ratio” value amounted to 1.04.
For U7C U8G G9C U10A U11G C12G the value was 1.26; for U7C U8G G9C U10A U11G C12U, 1.31; for U7C U8G G9C U10A U11G C12A, 1.05.
For U7C U8G G9C the value was 1.08; for U7C U8G G9C U10A U11G C12U C13A, 1.16.
With U7C U8G G9C U10A U11G C12U C13G, the “aptazyme ON/OFF ratio” value worked out at 1.12.
The value for U7C U8G G9C U10A U11G C12U C13U was 1.18; that for U7C U8G G9C U10A U11G was 1.18.
As to U7C U8G G9C U10A U11A, the “aptazyme ON/OFF ratio” value came out at 1.3.
The value for U7C U8G G9C U10A U11C was 1.03.
Regarding U7C U8G G9A U11G C12G C13A, the “aptazyme ON/OFF ratio” value worked out at 1.16.
As to U7C U8G G9A U11G C12G C13G, the “aptazyme ON/OFF ratio” value is 1.27.
Turning to U7C U8G G9A U11G C12G C13U, the “aptazyme ON/OFF ratio” value came out at 1.18.
The value for U7C U8G G9C U10C U11C C12G was 1.05.
For U7C U8G G9C U10C U11C C12U the value was 1.04; for U7C U8G G9C U10C U11C C12A, 1.04; for U7C U8G G9C C12A C13G, 1.09.
For U7C U8G G9C C12A C13A the value was 1.21.
U7C U8G G9C C12A C13U: the “aptazyme ON/OFF ratio” value was 1.31.
As to U7C U8G G9C U10A U11A C13A, the “aptazyme ON/OFF ratio” value was 1.15.
The value for U7C U8G G9C U10A U11A C13U was 1.2.
Turning to U7C U8G G9C U10A U11A C13G, the “aptazyme ON/OFF ratio” value came out at 1.08.
As to U7C U8G G9C U10A U11C C12G C13G, the “aptazyme ON/OFF ratio” value came to 1.24.
In the case of U7C U8G G9C U10A U11C C12G C13U, the “aptazyme ON/OFF ratio” value was 1.3.
Regarding U7C U8G G9C U10A U11C C12G C13A, the “aptazyme ON/OFF ratio” value is 1.24.
For U7C U8G G9C U10A C12G the value was 1.14; for U7C U8G G9C U10A C12U, 1.17.
With U7C U8G G9C U10A C12A, the “aptazyme ON/OFF ratio” value was determined as 1.2.
The value for U7C U8G G9C U10A U11C C12U C13A was 1.11.
In the case of U7C U8G G9C U10A U11C C12U C13U, the “aptazyme ON/OFF ratio” value was found to be 1.09.
Consider U7C U8G G9C U10A U11C C12U C13G, for which the “aptazyme ON/OFF ratio” value was 1.12.
Turning to U7C U8G G9A U11C C12U C13A, the “aptazyme ON/OFF ratio” value came to 1.09.
Regarding U7C U8G G9A U11C C12U C13G, the “aptazyme ON/OFF ratio” value is 1.15.
U7C U8G G9A U11C C12U C13U: the “aptazyme ON/OFF ratio” value turned out to be 1.09.
On to U7C U8G G9C U10C U11A C12A C13U, for which the “aptazyme ON/OFF ratio” value stood at 1.09.
For U7C U8G G9C U10C U11A C12A C13G the value was 1.06; for U7C U8G G9C U10C U11A C12A C13A, 1.08; for U7C U8G G9C U10C C13A, 1.06.
The value for U7C U8G G9C U10C C13G was 1.08.
